Where no end group is shown, it is not given here.
Columns and labels:
CXCR3 [1] = target: T1, CXCR3 (Homo sapiens, UniProt P49682); experiment: Calcium signaling using FLIPR, CHO/Gqi5 line stably expressing CXCR3 (#122-17); format: cell-based; set-up: prepared by amplifying the coding region of human CXCR3 by the PCR technique; expressed in transfected cells; host or cells: CHO/Gqi5 cells; settings: #122-17 line, FIG. 6; for concentration dependency of the response: human ligands at 100, 300, 1,000 ng/ml; for ligand concentration from which responsiveness could be confirmed: human ligands
T1 sequence (P49682 1-368): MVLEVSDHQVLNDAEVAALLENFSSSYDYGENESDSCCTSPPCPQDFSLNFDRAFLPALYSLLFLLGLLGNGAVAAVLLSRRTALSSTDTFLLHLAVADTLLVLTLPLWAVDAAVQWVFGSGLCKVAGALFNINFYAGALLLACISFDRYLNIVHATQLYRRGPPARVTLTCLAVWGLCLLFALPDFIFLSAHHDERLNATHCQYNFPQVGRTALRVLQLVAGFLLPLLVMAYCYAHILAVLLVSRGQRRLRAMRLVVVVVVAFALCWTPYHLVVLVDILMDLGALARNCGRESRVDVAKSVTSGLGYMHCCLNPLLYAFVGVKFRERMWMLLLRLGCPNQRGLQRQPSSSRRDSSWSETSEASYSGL
Procedure: 1×10^6 cells were sown to a T25 flask, and cultured in a CO2 incubator for 24 hours. pcDNA3.1/Zeo-CXCR3 was cleaved with the restriction endonuclease SspI, and linearized at the vector portion. 2.5 μg of this plasmid DNA was diluted in 250 μl of OPTI-MEM, and 15 μl of LipofectAmine was diluted in 250 μl of OPTI-MEM. Both were mixed and allowed to stand at room temperature for 30 minutes, after which 2 ml of a serum-free F12 medium was added, and the mixture was added to a flask once washed with a serum-free F12 medium. After cultivation in a CO2 incubator for 4 hours, the medium was replaced with a 10% FBS-supplemented F12 medium (once washed), and cultivation was conducted in a CO2 incubator for 48 hours. The cells were recovered and sown to a 96-well plate at 1, 5 or 25 cells/well. At this time, Zeocin was added at 250 μg/ml. Three 96-well plates for each cell concentration, i.e., a total of nine plates, were cultured. About 20 days later, cells were recovered from the wells with evidence of cell proliferation, and sown to a 96-well Black bottom clear plate (Corning). Next day the plate was subjected to a measurement using FLIPR®, and selection of lines showing good ligand responsiveness was performed. For the lines showing good ligand responsiveness, recloning was performed. Each was selected at 0.1 cells/well on the 96-well plate, cells were recovered from the wells showing evidence of cell proliferation after about 20 days, and line selection was performed in the same manner as above.
The cells recovered from each well were sown to a 96-well Black bottom clear plate (Corning). When cell counting was possible, the cells were sown at 2×10^4 cells/well. Next day, the medium was removed, 50 μl of an H/H/F/PB solution containing 2 μM Fluo-3-AM and 0.02% Pluronic acid was added, and cultivation was conducted in a CO2 incubator for 1 hour. The medium was replaced with 100 μl of H/H/F/PB solution and heating was conducted in a CO2 incubator for 10 minutes, after which the plate was set to FLIPR® and further heated at 37° C. for 10 minutes, after which 25 μl of the ligand similarly heated at 37° C. was added using an injector, and a measurement of calcium signaling was conducted.
By the aforementioned method of (2)-2., pcDNA3.1/Zeo-CXCR3 was cleaved with the restriction endonuclease SspI and linearized at the vector portion. This was transfected to CHO/Gqi5 cells, and drug-resistant lines were selected using 250 μg/ml zeocin to obtain 156 drug-resistant lines. Next, for these resistant lines, responsiveness to IP-10 was confirmed using FLIPR®, and lines showing high ligand responsiveness (6 clones) were isolated. […]

CXCR3 [2] = target: T1, CXCR3; experiment: Calcium signaling using FLIPR, CHO/Gqi5 cells transiently expressing CXCR3; format: cell-based; set-up: prepared by amplifying the coding region of human CXCR3 by the PCR technique; expressed in transfected cells; host or cells: CHO/Gqi5 cells; settings: pcDNA3.1/Zeo-CXCR3 transiently transfected CHO/Gqi5 cells; human ligands, 300 ng/ml; FIG. 5
Procedure: (§1) CHO/Gqi5 cells, at 2×10^4 cells/well, were sown to a 96-well Black bottom clear plate (Corning), and cultured in the absence of antibiotics in a CO2 incubator for 24 hours. 50 ng of pcDNA3.1/Zeo-CXCR3 or pcDNA3.1 was diluted in 5 μl of OPTI-MEM, and 0.3 μl of LipofectAmine was diluted in 5 μl of OPTI-MEM. Both were mixed and allowed to stand at room temperature for 30 minutes, after which 40 μl of a serum-free F12 medium was added, and the mixture was added to wells once washed with a serum-free F12 medium. After cultivation in a CO2 incubator for 4 hours, the medium was replaced with a 10% FBS-supplemented F12 medium (once washed), and the cells were cultured in a CO2 incubator for 24 hours and subjected to a measurement using FLIPR®.
(§2) The cells recovered from each well were sown to a 96-well Black bottom clear plate (Corning). When cell counting was possible, the cells were sown at 2×10^4 cells/well. Next day, the medium was removed, 50 μl of an H/H/F/PB solution containing 2 μM Fluo-3-AM and 0.02% Pluronic acid was added, and cultivation was conducted in a CO2 incubator for 1 hour. […]

[3] = test system: CHO/Gqi5 cell line incorporating an empty vector (pcDNA3.1); experiment: Calcium signaling using FLIPR, CHO/Gqi5 cells transfected with control pcDNA3.1 (empty vector); format: cell-based; settings: control pcDNA3.1 transfected CHO/Gqi5 cells; human ligands, 300 ng/ml; FIG. 5
Procedure: as §1, §2

[4] = test system: diabetic model mouse C57BL/KsJ-db/db mice; experiment: Oral glucose tolerance test; format: in vivo; settings: for glucose tolerance ameliorating effect (blood glucose level after glucose loading): db/db mice fasted overnight, intravenous, mouse IP-10 6 μg/head, GLP-1 (7-36 Amide) 50 μg/head, 3 g/kg D-glucose orally, 0-135 minutes, FIGS. 2 and 3; for blood glucose levels at 90 minutes after glucose loading: db/db mice, intravenous mouse Mig or human I-TAC, versus solvent control group, FIG. 4
Procedure: In the test, diabetic model mouse C57BL/KsJ-db/db mice (male, SPF grade, 7-week old, Clea Japan) were fasted overnight from the day before testing, mouse IP-10 (PEPRO TECH) or GLP-1 (7-36 Amide) (Peptide Institute), previously dried, was dissolved in physiological saline (Otsuka Pharmaceutical), and intravenous administration was conducted (6 μg/head; n=4 for IP-10, 50 μg/head; n=4 for GLP-1). For a solvent control group, physiological saline (Otsuka Pharmaceutical) was used (n=4). After intravenous administration, 3 g/kg of D-glucose was orally administered. Before glucose loading (0 minute) and 15, 45, 90 and 135 minutes after glucose loading, blood was collected from the caudal vein, and blood glucose levels were measured in accordance with the method described below.
That is, 10 μl of blood was collected and mixed with 100 μL of 0.4 N perchloric acid, further 50 μL of 0.37 M potassium carbonate was added, and the supernatant after centrifugation was analyzed using the Glucose CII•Test Wako (glucose quantitation kit, mutarotase•GOD method, Wako Pure Chemicals) to determine the blood glucose level.
Also for Mig and I-TAC, which are CXCR3 ligands other than IP-10, mouse Mig or human I-TAC (both manufactured by BIOCARTA), previously dried, was dissolved in physiological saline (Otsuka Pharmaceutical), intravenous administration was conducted, and glucose tolerance ameliorating action was evaluated by the same technique.

CXCR3 [5] = target: T1, CXCR3; settings: J. Biol. Chem., 273(29): 18288-18291 (1998); Eur. J. Immunol., 29 (1999); cited from earlier work
human CXCR3 (human) = human CXCR3 (human) (UniProt P49682); experiment: cell-based or functional assay

With “IP-10: CXC chemokine, physiological ligand for CXCR3; mouse IP-10 (PEPRO TECH) in Example 1, human IP-10 (Peprotech) in Example 4” the “concentration dependency of the response” value (CXCR3 [1]) was “concentration dependency could be confirmed”, the “ligand concentration from which responsiveness could be confirmed” value (CXCR3 [1]) was ≥ 300 ng/mL and the “responsiveness to ligand (calcium signaling, fluorescence intensity)” value (CXCR3 [2]) was “a response was observed”. For the same molecule, the “responsiveness to ligand (calcium signaling, fluorescence intensity)” value [3] was “no response was detected” and the “glucose tolerance ameliorating effect (blood glucose level after glucose loading)” value [4] was “glucose tolerance ameliorating effect nearly equivalent, on a dose basis, to that of GLP-1”.

For “RANTES: CC chemokine known to weakly bind to CXCR3”, the “binding to CXCR3” value (CXCR3 [5]) is given as “weakly bind”.

In the case of “MIP-3a: CC chemokine known to weakly bind to CXCR3”, the “binding to CXCR3” value (CXCR3 [5]) is given as “weakly bind”.

For “I-TAC: CXC chemokine, physiological ligand for CXCR3; human I-TAC”, the “concentration dependency of the response” value (CXCR3 [1]) was “concentration dependency could be confirmed”, the “ligand concentration from which responsiveness could be confirmed” value (CXCR3 [1]) was ≥ 100 ng/mL and the “responsiveness to ligand (calcium signaling, fluorescence intensity)” value (CXCR3 [2]) was “a response was observed”. The “responsiveness to ligand (calcium signaling, fluorescence intensity)” value [3] was “no response was detected” and the “blood glucose levels at 90 minutes after glucose loading” value [4] was “decreased compared to the solvent control group”.

For “MCP-3: CC chemokine known to weakly bind to CXCR3”, the “binding to CXCR3” value (CXCR3 [5]) is given as “weakly bind”.

In the case of “eotaxin: CC chemokine known to weakly bind to CXCR3”, the “binding to CXCR3” value (CXCR3 [5]) is given as “weakly bind”.

With “human I-TAC (G/T) (from UniProt O14625 22-94) (ligand)” the lowest ligand concentration giving a calcium response (FLIPR) in the CXCR3 stably expressing CHO/Gqi5 line #122-17 (human CXCR3 (human)) was 100 ng/mL.

In the case of “MCP-4: CC chemokine known to weakly bind to CXCR3”, the “binding to CXCR3” value (CXCR3 [5]) is listed as “weakly bind”.

For “Human IP-10 (Peprotech) (from UniProt P02778 22-98) (ligand)”, the lowest ligand concentration giving a calcium response (FLIPR) in the CXCR3 stably expressing CHO/Gqi5 line #122-17 (human CXCR3 (human)) was 300 ng/mL.

For “GLP-1 (7-36 Amide) (HAEGTFTSDVSSYLEGQAAKEFIAWLVKGR-NH2; UniProt P01275 98-127, looked up) [a kind of incretin known to act on the pancreas to promote insulin secretion (Peptide Institute), reference compound]”, the “glucose tolerance ameliorating effect (blood glucose level after glucose loading)” value [4] was “glucose tolerance ameliorating effect”.

B1: Mig: CXC chemokine, physiological ligand for CXCR3; mouse Mig (BIOCARTA) (protein, UniProt P18340 22-126, looked up)
C-X-C motif chemokine 9: TLVIRNARCSCISTSRGTIHYKSLKDLKQFAPSPNCNKTEIIATLKNGDQTCLDPDSANVKKLMKEWEKKISQKKKQKRGKKHQKNMKNRKPKTPQSRRRSRKTT
In the case of B1, the “blood glucose levels at 90 minutes after glucose loading” value [4] is reported as “decreased compared to the solvent control group”.

B2: 6Ckine: CC chemokine known to weakly bind to CXCR3 (protein, UniProt O00585 24-134, looked up)
C-C motif chemokine 21: SDGGAQDCCLKYSQRKIPAKVVRSYRKQEPSLGCSIPAILFLPRKRSQAELCADPKELWVQQLMQHLDKTPSPQKPAQGCRKDRGASKTGKKGKGSKGCKRTERSQTPKGP
For B2, the “binding to CXCR3” value (CXCR3 [5]) is given as “weakly bind”.

From patent publication US20050119174A1, “Novel blood sugar controller and method of screening the same” (Sumitomo Pharmaceuticals Co. Ltd., priority 2002, published 2005)
